Measured values taken from ChEMBL document CHEMBL1155272, “Nucleoside-5'-monophosphates as prodrugs of adenosine A2A receptor agonists activated by ecto-5'-nucleotidase” (J Med Chem, 2009).

Substrate: Nc1ncnc2c1ncn2[C@@H]1O[C@H](COP(=O)(O)O)[C@@H](O)[C@H]1O
Test: Activity at alkaline phosphatase

B1: Alkaline phosphatase, tissue-nonspecific isozyme (Homo sapiens), P05186 (protein)
chain: MISPFLVLAIGTCLTNSLVPEKEKDPKYWRDQAQETLKYALELQKLNTNVAKNVIMFLGDGMGVSTVTAARILKGQLHHNPGEETRLEMDKFPFVALSKTYNTNAQVPDSAGTATAYLCGVKANEGTVGVSAATERSRCNTTQGNEVTSILRWAKDAGKSVGIVTTTRVNHATPSAAYAHSADRDWYSDNEMPPEALSQGCKDIAYQLMHNIRDIDVIMGGGRKYMYPKNKTDVEYESDEKARGTRLDGLDLVDTWKSFKPRYKHSHFIWNRTELLTLDPHNVDYLLGLFEPGDMQYELNRNNVTDPSLSEMVVVAIQILRKNPKGFFLLVEGGRIDHGHHEGKAKQALHEAVEMDRAIGQAGSLTSSEDTLTVVTADHSHVFTFGGYTPRGNSIFGLAPMLSDTDKKPFTAILYGNGPGYKVVGGERENVSMVDYAHNNYQAQSAVPLRHETHGGEDVAVFSKGPMAHLLHGVHEQNYVPHVMAYAACIGANLGHCAPASSAGSLAAGPLLLALALYPLSVLF
B1 showed a Km of 441 µM.
